Measured values: the supplement of paper PMC9170038

Tested on: MS2 coat protein
Assay: apparent KD of MS2 coat protein; designed switch direction (-1 OFF switch, 1 ON switch): 1; higher = weaker reporter binding
Method in brief: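 On Illumina chips, designed RNA switches with common flanks were made by stalled E. coli RNA polymerase. Titrations with SNAP-549-labelled MS2 coat protein, doubling from 0.7 or 1.5 nM to 3 µM, were done with no input, with 200 uM small-molecule ligand, or with an oligonucleotide input. Apparent KD is the median per design over clusters, from curve fits of normalised cluster fluorescence.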

[1] = input ligand: microRNA oligo, concentration not stated
[2] = Eterna round: R95, input ligand: FMN 200 uM
[3] = Eterna round: R95, input ligand: microRNA oligo, concentration not stated
[4] = Eterna round: R95, input ligand: none

Row | Sequence | apparent KD of MS2 coat protein (input ligand: FMN 200 uM) [nM] | apparent KD of MS2 coat protein [1] [nM] | apparent KD of MS2 coat protein (input ligand: none) [nM] | apparent KD of MS2 coat protein [2] [nM] | apparent KD of MS2 coat protein [3] [nM] | apparent KD of MS2 coat protein [4] [nM]
1 | GCUCGGACGAUGACCCACAUGAGGAUCACCCAUGUGCUUGGGCAGGAUAUCUAGAUUAAGGAUGUAGAGAAGGGUCGACCGAGC [SameState NG3 #29] (Eterna round: R96, puzzle: Same State NG 3) | 345 | 90.3 | 211 |  |  | 
2 | AGAGCCGGCACUGAGGAUAUUCAUAAUAAAACAUGAGGAUCACCCAUGUAGGCCAGAAGGCCUUGGGAGAAGGCAGGUCGGCUCG [Mat - Same State 2 - Mod of UCT - D68] (puzzle: Same State 2) |  |  |  | 17.3 | 122 | 200
3 | AUUACUAACAUAGGAUAUCAUGCGAAAAUUGCGUGAGAAGGGUGGACGCUGUCAUUCACGGAAGACAUGAGGAUCACCCAUGUC [SameState NG1 #73] (Eterna round: R96, puzzle: Same State NG 1) | 170 | 70.5 | 119 |  |  | 
4 | GGUCCAGCCUGAGCUGGACAAAAGCAUGUACAUGAGGAUCACCCAUGUUCAUGUACAAGCUUUUUGCUCGUCUUAUG [salish99_208a_r3_053] (puzzle: Sensor for hsa-mir-208a) |  |  |  | 693 | 18.1 | 785
5 | UGGUACAUGGGAGGAUAUCUCAUGGAGACAUGAGGAUCACCCAUGUAGUAGGACCGGAAACGGUGAGAGAAGGCCCAUGUACCU [JL SSNG1 3.73] (Eterna round: R96, puzzle: Same State NG 2) | 26.6 | 40.5 | 51.5 |  |  | 
6 | ACAUGAGGCGCAGGAUAUACAGUUGUAUAACAUGAGGACAUGACAUGAGGAUCACCCAUGUCCCAGUAGAAGGGCGAACAUGAG [Same State NG2 S2] (Eterna round: R96, puzzle: Same State NG 2) | 172 | 102 | 144 |  |  | 
7 | UAGAGAGGAAGCGAGGAUAUCGUGUGAGGUACAUGAGGAUCACCCAUGUUUGAUGUUGAGAGAGGCGAGAAGGCGCAGGAGAUAA [JR_SS2_Sub085] (puzzle: Same State 2) |  |  |  | 31.9 | 32.4 | 34.1
8 | GGUCCAUCAUGAGGAUAUGGCACCUUAUUGGUGCCAGAAGGCAUGUCUAUUAGACAUGAGGAUCACCCAUGUAUAAAUUGGACC [Eli NG1ss - 91] (Eterna round: R96, puzzle: Same State NG 1) | 108 | 192 | 1130 |  |  | 
9 | AAUAUACAUGAGGAUCACCCAUGUUAGUAAAUGACAGGAUAUGCAAUAAAUAAAUAAUAAGCAGAAGGGUCUAAUA [JMF's solution 1] (puzzle: Same State 1) |  |  |  | 13.7 | 14.2 | 16
10 | UAGUGCGUUAGAGGAUAUUCUAAAAAAAAAAAAAAGACAUGAGGAUCACCCAUGUAUGUACAUGGGAAGAAGGCUGAUGUGCUA [Omei SS(NG)2 B] (Eterna round: R96, puzzle: Same State NG 2) | 75.9 | 352 | 551 |  |  | 
11 | GGUGGGUUACUACCCACACAUGAGGAUCACCCAUGUAUUGGGAAGGAUAUGGUGCCUGUGUGGUACCAGAAGGUCCUGGAGGUG [SS-NG3-LRO20] (Eterna round: R96, puzzle: Same State NG 3) | 1350 | 237 | 1590 |  |  | 
12 | AGAGAACAUGAGGAUCACCCAUGUAGGAUGGGCAUAGGAUAUAGAAGGAUGAGGGAGAAACUAGAAGGAUGAUGGA [JR_SS1_Sub077] (puzzle: Same State 1) |  |  |  | 124 | 152 | 278
13 | CGUAGGUAGCUGGAGGAUAUUCGAGUGGUAACAUGAGGAUCACCCAUGUGGAUAGAGGAACAUGAGGAGAAGGCUAGCUGCCUGC [JL-ss2-3.20 JL mod] (puzzle: Same State 2) |  |  |  | 11.3 | 26.6 | 30.6
14 | UCGGGCGUACUUGCUGACAUGAGGAUCACCCAUGUAAAUGGGAAGGAUAUGGUUCCGUUUCGGUUCCAGAAGGUCCUGGGUGCU [salish99_SSNG3_r04_311] (Eterna round: R96, puzzle: Same State NG 3) | 886 | 1140 | 1180 |  |  | 
15 | GUGGUCAGACAUGAGGAUCACCCAUGUGGAAUAAAUAACGGACAGGAUAUGCAAUAUAGGAUAUAGUAGAAGGGUUGAUUGGUG (Eterna round: R96, puzzle: Same State NG 3) |  | 49.3 |  |  |  | 
16 | GGAGAACAUGAGGAUCACCCAUGUGGAUGGGCGCUAGGAUAUGCGAGAGGGUGAAGAGAAGCAGAAGGAGUGGAUA [JR_SS1_Sub036] (puzzle: Same State 1) |  |  |  | 101 | 104 | 161
17 | UAUAUUAUGGUAGGAUAUGUAGGAUAUGGCGAGAGCUAAGCUUGGAAGUCACUUCAGCCAGAAGGACAGAAGGACCAUAAUAUU [pwkr ssNG2 2FMN + F9.9] (Eterna round: R96, puzzle: Same State NG 2) | 16.6 | 127 | 216 |  |  | 
18 | GUAGCAUACCGAGGAUAUUCAUAUUACAUGAGGAUCACCCAUGUGGCCAGCAUUAGCUGGCCUUGGGAGAAGGCGGAAUGCUAC [Xeonanis - 20 Mod49] (Eterna round: R96, puzzle: Same State NG 2) | 110 | 623 | 1150 |  |  | 
19 | UCAAGCGUUUGGCUCGUCUUAUGUUUGGUACAUGAGGAUCACCCAUGUUAGGGACGAUCCAGUUAGAUGGAAUUUUG [JR_SHM208A_Sub036] (puzzle: Sensor for hsa-mir-208a) |  |  |  | 36.5 | 637 | 45.6
20 | CUGAGCAGUCAAGGAUAUCACGUCGAUUAGACGUGAGAAGGUGACCAAUACAUGAGGAUCACCCAUGUAAUACAUGAAGCUCAG [SSNG1/12-A2] (Eterna round: R96, puzzle: Same State NG 1) | 20.4 | 28.5 | 39.5 |  |  | 
21 | UAUAAACAUGAGGAUCACCCAUGUAAUAAUAUGGGAGGAUAUCAGAAUGUAUGUAUGUAAUGAGAAGGCCUAAUAU [Mat - Same State 1 - Mod of Eli - D70] (puzzle: Same State 1) |  |  |  | 54.4 | 268 | 1270
22 | GUGUGUUGCGGGCAGGAUAUGUACUUGAGUACAUGAGGAUCACCCAUGUGCGGGUGUUUCACCCGACAGAAGGGCCUAUCGCGAC [JL-ss2-3.25 ViennaUCT mod] (puzzle: Same State 2) |  |  |  | 145 | 136 | 664
23 | GUACAGAUUAUAGGAUAUCACGUCGAAUAGACGUGAGAAGGAUAAUCCCACAUGAAUAUUAAUACAUGAGGAUCACCCAUGUAC [SSNG1/18-B1] (Eterna round: R96, puzzle: Same State NG 1) | 16.8 | 19.8 | 20.4 |  |  | 
